For this experiment, the system named is TN1 PDX tumor cells. Kind of experiment: ex vivo aggregation (clustering) assay of dissociated PDX tumor cells, IncuCyte time-lapse imaging. The experiment is classed as cell-based, human. The conditions noted are these: media supplemented with EGF (10 ng/ml).

Experimental: Cell clustering assay. Freshly dissociated primary tumor cells in single cell suspension were seeded in collagen type I-coated 96-well plates. The plates were put into the IncuCyte live cell imaging system (Essen BioScience), and live images were taken every 2-4 h for up to one week. The cluster number and size were analyzed by Incucyte ZOOM software (Essen BioScience). In specific experiments, primary tumor cells might be sorted based on the expression of CD44 prior to seeding. In other experiments, seeded tumor cells might be transfected with siRNAs (100 nM) or treated with various inhibitors during the clustering assays. For cell viability analysis during clustering, the IncuCyte Cytotox Red reagent (Essen BioScience) was added to the medium according to the manufacturer's instructions.

B1: EGF: epidermal growth factor supplemented to culture media at 10 ng/ml (protein, UniProt P01133 23-1207, looked up)
Pro-epidermal growth factor: PQHWSCPEGTLAGNGNSTCVGPAPFLIFSHGNSIFRIDTEGTNYEQLVVDAGVSVIMDFHYNEKRIYWVDLERQLLQRVFLNGSRQERVCNIEKNVSGMAINWINEEVIWSNQQEGIITVTDMKGNNSHILLSALKYPANVAVDPVERFIFWSSEVAGSLYRADLDGVGVKALLETSEKITAVSLDVLDKRLFWIQYNREGSNSLICSCDYDGGSVHISKHPTQHNLFAMSLFGDRIFYSTWKMKTIWIANKHTGKDMVRINLHSSFVPLGELKVVHPLAQPKAEDDTWEPEQKLCKLRKGNCSSTVCGQDLQSHLCMCAEGYALSRDRKYCEDVNECAFWNHGCTLGCKNTPGSYYCTCPVGFVLLPDGKRCHQLVSCPRNVSECSHDCVLTSEGPLCFCPEGSVLERDGKTCSGCSSPDNGGCSQLCVPLSPVSWECDCFPGYDLQLDEKSCAASGPQPFLLFANSQDIRHMHFDGTDYGTLLSQQMGMVYALDHDPVENKIYFAHTALKWIERANMDGSQRERLIEEGVDVPEGLAVDWIGRRFYWTDRGKSLIGRSDLNGKRSKIITKENISQPRGIAVHPMAKRLFWTDTGINPRIESSSLQGLGRLVIASSDLIWPSGITIDFLTDKLYWCDAKQSVIEMANLDGSKRRRLTQNDVGHPFAVAVFEDYVWFSDWAMPSVMRVNKRTGKDRVRLQGSMLKPSSLVVVHPLAKPGADPCLYQNGGCEHICKKRLGTAWCSCREGFMKASDGKTCLALDGHQLLAGGEVDLKNQVTPLDILSKTRVSEDNITESQHMLVAEIMVSDQDDCAPVGCSMYARCISEGEDATCQCLKGFAGDGKLCSDIDECEMGVPVCPPASSKCINTEGGYVCRCSEGYQGDGIHCLDIDECQLGEHSCGENASCTNTEGGYTCMCAGRLSEPGLICPDSTPPPHLREDDHHYSVRNSDSECPLSHDGYCLHDGVCMYIEALDKYACNCVVGYIGERCQYRDLKWWELRHAGHGQQQKVIVVAVCVVVLVMLLLLSLWGAHYYRTQKLLSKNPKNPYEESSRDVRSRRPADTEDGMSSCPQPWFVVIKEHQDLKNGGQPVAGEDGQAADGSMQPTSWRQEPQLCGMGTEQGCWIPVSSDKGSCPQVMERSFHMPSYGTQTLEGGVEKPHSLLSANPLWQQRALDPPHQMELTQ
modifications: Pro-epidermal growth factor
notes: epidermal growth factor supplemented to culture media at 10 ng/ml
As to B1, the “cluster formation of TN primary tumor cells” value is “increased cluster formation”.

For the origin of these results see patent US20220002429A1, “TUMOR CELL AGGREGATION INHIBITORS' FOR TREATING CANCER” (Northwestern University, priority 2018, published 2022).
